The text below walks through data of publication PMC10284912, “Molecular choreography of primer synthesis by the eukaryotic Pol α-primase” (Nature Communications, 2023).

Sequences and labels used below:
B1: S. cerevisiae polymerase accessory subunit Pol12 (natural protein, UniProt P38121 1-705, looked up)
chain: MSGSIDVITHFGPDADKPEIITALENLTKLHALSVEDLYIKWEQFSNQRRQTHTDLTSKNIDEFKQFLQLQMEKRANQISSSSKVNTSTKKPVIKKSLNSSPLFGLSIPKTPTLKKRKLHGPFSLSDSKQTYNVGSEAETNEKGNSSLKLEFTPGMAEDAVGDSAPLSHAKSSDAKTPGSSTFQTPTTNTPTTSRQNVPAGEILDSLNPENIEISSGNPNVGLLSTEEPSYNQVKVEPFYDAKKYKFRTMRQNLQEASDVLDDQIESFTKIIQNHYKLSPNDFADPTIQSQSEIYAVGRIVPDSPTYDKFLNPESLSLETSRMGGVGRRVRLDLSQVNELSFFLGQIVAFKGKNANGDYFTVNSILPLPYPNSPVSTSQELQEFQANLEGSSLKVIVTCGPYFANDNFSLELLQEFIDSINNEVKPHVLIMFGPFIDITHPLIASGKLPNFPQFKTQPKTLDELFLKLFTPILKTISPHIQTVLIPSTKDAISNHAAYPQASLIRKALQLPKRNFKCMANPSSFQINEIYFGCSNVDTFKDLKEVIKGGTTSSRYRLDRVSEHILQQRRYYPIFPGSIRTRIKPKDVSTKKETNDMESKEEKVYEHISGADLDVSYLGLTEFVGGFSPDIMIIPSELQHFARVVQNVVVINPGRFIRATGNRGSYAQITVQCPDLEDGKLTLVEGEEPVYLHNVWKRARVDLIAS
notes: intact complex without truncations; also called p70; B-subunit
B2: S. cerevisiae catalytic primase 1 (Pri1) (natural protein, UniProt P10363 1-409, looked up)
chain: MTNSVKTNGPSSSDMEYYYKSLYPFKHIFNWLNHSPKPSRDMINREFAMAFRSGAYKRYNSFNSVQDFKAQIEKANPDRFEIGAIYNKPPRERDTLLKSELKALEKELVFDIDMDDYDAFRTCCSGAQVCSKCWKFISLAMKITNTALREDFGYKDFIWVFSGRRGAHCWVSDKRARALTDVQRRNVLDYVNVIRDRNTDKRLALKRPYHPHLARSLEQLKPFFVSIMLEEQNPWEDDQHAIQTLLPALYDKQLIDSLKKYWLDNPRRSSKEKWNDIDQIATSLFKGPKQDSHIIKLRECKEDLVLMTLYPKLDVEVTKQTIHLLKAPFCIHPATGNVCVPIDESFAPEKAPKLIDLQTEMEKNNDVSLTALQPFINQFQAYVSSLLKNELGSVKREREDDDEPASLDF
notes: DNA primase small (catalytic) subunit Pri1, S. cerevisiae; intact complex without truncations; also called p49; PriS
B3: S. cerevisiae regulatory subunit primase 2 (Pri2) (natural protein, UniProt P20457 1-528, looked up)
chain: MFRQSKRRIASRKNFSSYDDIVKSELDVGNTNAANQIILSSSSSEEEKKLYARLYESKLSFYDLPPQGEITLEQFEIWAIDRLKILLEIESCLSRNKSIKEIETIIKPQFQKLLPFNTESLEDRKKDYYSHFILRLCFCRSKELREKFVRAETFLFKIRFNMLTSTDQTKFVQSLDLPLLQFISNEEKAELSHQLYQTVSASLQFQLNLNEEHQRKQYFQQEKFIKLPFENVIELVGNRLVFLKDGYAYLPQFQQLNLLSNEFASKLNQELIKTYQYLPRLNEDDRLLPILNHLSSGYTIADFNQQKANQFSENVDDEINAQSVWSEEISSNYPLCIKNLMEGLKKNHHLRYYGRQQLSLFLKGIGLSADEALKFWSEAFTRNGNMTMEKFNKEYRYSFRHNYGLEGNRINYKPWDCHTILSKPRPGRGDYHGCPFRDWSHERLSAELRSMKLTQAQIISVLDSCQKGEYTIACTKVFEMTHNSASADLEIGEQTHIAHPNLYFERSRQLQKKQQKLEKEKLFNNGNH
notes: DNA primase large (regulatory) subunit Pri2, S. cerevisiae (Pri2-NTD, 20-residue linker, Pri2-CTD with a 4Fe-4S cluster); intact complex without truncations; also called p58; PriL

The target in test [1] is T1, S. cerevisiae DNA polymerase catalytic subunit Pol1 (S. cerevisiae, UniProt P13382 1-1468).
T1 construct: DNA polymerase alpha catalytic subunit Pol1, S. cerevisiae, aa 1-1468 (Pol1-NTD aa 1-348, Pol1-core aa 349-1259, Pol1-CTD aa 1260-1468); intact complex without truncations; also called DNA polymerase 1; p180
T1 sequence (looked up): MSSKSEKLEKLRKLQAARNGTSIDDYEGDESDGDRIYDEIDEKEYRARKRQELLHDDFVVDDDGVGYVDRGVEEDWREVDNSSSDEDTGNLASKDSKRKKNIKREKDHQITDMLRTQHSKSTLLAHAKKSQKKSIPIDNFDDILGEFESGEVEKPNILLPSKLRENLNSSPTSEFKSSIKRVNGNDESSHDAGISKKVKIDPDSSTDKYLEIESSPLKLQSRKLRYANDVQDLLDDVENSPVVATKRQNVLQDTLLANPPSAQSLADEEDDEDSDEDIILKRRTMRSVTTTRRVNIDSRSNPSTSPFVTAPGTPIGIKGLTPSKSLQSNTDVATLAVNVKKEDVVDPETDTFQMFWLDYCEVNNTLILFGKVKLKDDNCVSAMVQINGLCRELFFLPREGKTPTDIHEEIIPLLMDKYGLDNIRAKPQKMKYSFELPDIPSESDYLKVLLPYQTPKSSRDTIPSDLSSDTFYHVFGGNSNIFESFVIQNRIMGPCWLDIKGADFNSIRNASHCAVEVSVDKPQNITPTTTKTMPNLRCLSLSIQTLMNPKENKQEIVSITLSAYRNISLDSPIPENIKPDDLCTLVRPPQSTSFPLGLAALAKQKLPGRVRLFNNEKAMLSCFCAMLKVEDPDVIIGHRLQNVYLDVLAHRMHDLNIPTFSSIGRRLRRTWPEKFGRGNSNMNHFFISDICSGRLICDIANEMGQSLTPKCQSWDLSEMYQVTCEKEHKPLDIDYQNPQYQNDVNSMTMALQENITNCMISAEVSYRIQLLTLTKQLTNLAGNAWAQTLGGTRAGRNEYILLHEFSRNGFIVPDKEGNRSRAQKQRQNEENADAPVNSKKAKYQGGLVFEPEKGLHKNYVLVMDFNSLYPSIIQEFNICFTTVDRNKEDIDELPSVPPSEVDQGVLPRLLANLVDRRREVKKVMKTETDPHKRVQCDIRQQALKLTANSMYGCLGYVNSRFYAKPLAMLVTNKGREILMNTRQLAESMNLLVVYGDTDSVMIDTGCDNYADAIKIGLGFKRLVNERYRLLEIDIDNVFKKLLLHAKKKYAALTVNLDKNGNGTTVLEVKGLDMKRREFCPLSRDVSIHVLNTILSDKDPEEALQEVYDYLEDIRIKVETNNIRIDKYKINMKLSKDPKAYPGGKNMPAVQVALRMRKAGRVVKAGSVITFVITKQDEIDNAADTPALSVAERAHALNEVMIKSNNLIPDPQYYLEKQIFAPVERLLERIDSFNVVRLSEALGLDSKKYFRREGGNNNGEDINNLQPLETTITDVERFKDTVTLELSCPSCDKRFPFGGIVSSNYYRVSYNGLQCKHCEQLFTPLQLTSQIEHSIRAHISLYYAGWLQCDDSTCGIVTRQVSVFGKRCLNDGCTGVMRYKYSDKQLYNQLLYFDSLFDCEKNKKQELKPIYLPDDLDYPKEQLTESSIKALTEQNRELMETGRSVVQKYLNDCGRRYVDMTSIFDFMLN
Briefly: cryo-EM structure; purified yeast Pol α-primase alone (apo state, conformers I and II, 3.7 and 3.8 Å); ~1 mg/ml; 50 mM HEPES pH 7.5, 50 mM KGlu, 200 mM KAcetate, 1 mM DTT, 4 mM MgCl2. The settings on record: both partners purified.

For test [2], the target named is B3. The test is described as above. Conditions: both partners purified.

For B1, the binding result in test [1] is given as “binds”. For the molecule B2, the binding result in test [2] and in test [1] was “binds” in each case. In the case of B3, the binding result in test [1] is reported as “binds”.
